Measured values published in patent US20140234872.

How the values were obtained:
[1] = test system: His-GIV-CT (aa 1660-1870), wild-type, phosphorylated in vitro by recombinant EGFR kinase
[2] = test system: His-GIV-CT Y1798F, phosphorylated in vitro by recombinant EGFR kinase
[3] = test system: His-GIV-CT Y1764F, phosphorylated in vitro by recombinant EGFR kinase
Chain of His-GIV-CT Y1764F, phosphorylated in vitro by recombinant EGFR kinase (chain, as listed by the source Y1764F): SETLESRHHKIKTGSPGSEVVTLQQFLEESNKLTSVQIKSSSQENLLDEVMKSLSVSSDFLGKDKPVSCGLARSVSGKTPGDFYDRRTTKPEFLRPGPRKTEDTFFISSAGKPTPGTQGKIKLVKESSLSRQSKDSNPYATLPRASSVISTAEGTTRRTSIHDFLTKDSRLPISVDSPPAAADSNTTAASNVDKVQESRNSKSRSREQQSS

Chain of His-GIV-CT (aa 1660-1870), wild-type, phosphorylated in vitro by recombinant EGFR kinase (chain, as listed by the source): as the sequence (chain, as listed by the source Y1764F) above, with F105Y counted along it
Chain of His-GIV-CT Y1798F, phosphorylated in vitro by recombinant EGFR kinase (chain, as listed by the source Y1798F): as the sequence (chain, as listed by the source Y1764F) above, with F105Y, Y139F counted along it

Substance | in vitro phosphatase assay: residual tyrosine phosphorylation of His-GIV-CT [1] | in vitro phosphatase assay: residual tyrosine phosphorylation of His-GIV-CT mutants [2] | in vitro phosphatase assay: residual tyrosine phosphorylation of His-GIV-CT mutants [3]
GST-SHP-1 (full length, wild-type, human) | SHP-1 WT, but not SHP-1 CS dephosphorylated tyrosine-phosphorylated His-GIV-CT in a dose-dependent manner |  | 
GST-SHP-1 C453S (catalytically inactive) | SHP-1 WT, but not SHP-1 CS dephosphorylated tyrosine-phosphorylated His-GIV-CT in a dose-dependent manner |  | 
His-SHP-1 (human, recombinant) | SHP-1 efficiently dephosphorylated GIV in a dose-dependent manner | SHP-1 efficiently dephosphorylated both mutants | SHP-1 efficiently dephosphorylated both mutants
